Key:
[1] = target: immune complex of #2B2 with sPLA2-GIB (human, UniProt P04054 23-148); experiment: flow cytometry, antibody-antigen immune complex on CHO cells expressing the receptor
Protocol: Antibody-antigen immune complex were generated by co-incubation of 10 µg/ml of humanized antibodies and 5 μg/ml of sPLA2-GIB for 30 min at 37° C. Immune complexes were then incubated with 1×10⁵ CHO cells stably expressing human FcγRs for 30 min on ice. The cells were then washed, detached, fixed, and analyzed by flow cytometry (FACSCalibur; BD Biosciences).
The binding of monomeric #2B, #2B1 and #2B2 to human FcγRs was tested by flow cytometry by incubating the mAbs with CHO cells stably expressing human FcγRI, FcγRIIA (H131), FcγRIIA(R131), FcγRIIB, FcγRIIIA(F176), FcγRIIIA(V176), FcγRIIIB(NA1), FcγRIIIB(NA2), and FcγRIIIB(SH), (REF P. Bruhns). As presented in FIG. 9, #2B is binding to hFcγRI and hFcγRIIIA(V176) only, whereas no monomeric binding of #2B1 and #2B2 to all tested hFcγRs was observed. Antibody-antigen immune complex was tested by first incubating the mAb with the antigen and then, incubating the immune complexes formed with CHO cells stably expressing human FcγRs. The immune complexe of #2B is binding to all tested hFcγRs, except hFcγRIIB (FIG. 10). Weak binding is observed for immune complex of #2B1 to hFcγRIIIA(V176) (data not shown), whereas no immune complex binding of #2B2 to any tested hFcγRs (data not shown).

[2] = target: T1, recombinant human sPLA2-GIB (mature secreted group IB pancreatic phospholipase A2) (human, UniProt P04054 23-148); experiment: competitive ELISA: constant antibody premixed with dilutions of soluble antigen, free antibody caught on antigen-coated plate
T1 construct: also called sPLA2-IB; PLA2-GIB mature form
Protocol: (§1) Binding affinities of the humanized antibodies to pro-sPLA2-GIB and sPLA2-GIB were measured by plate-based competition immunoassay. For the competition ELISA, briefly, constant amounts of antibody at different levels were premixed with serial dilutions of antigen protein, human sPLA2-GIB or pro-sPLA2-GIB, ranging from 0 to 10 μg/ml, and incubated for two hours at room temperature to reach pseudo-binding equilibrium between the antibody and antigen. These solutions were then transferred to 96-well sPLA2-GIB or pro-sPLA2-GIB pre-coated plates to allow the free-antibody in the mixtures to bind to plate-coated sPLA2-GIB or pro-sPLA2-GIB. The plates were typically coated with 30 to 100 ng of human sPLA2-GIB or pro-sPLA2-GIB protein in PBS solution overnight at 4° C. followed by BSA nonspecific blocking. After washing off excess antibody in solution, plate-bound antibodies were detected with an HRP-conjugated goat anti-mouse IgG or IgA polyclonal antibody reagent and developed using colorimetric substrate. The dependency of the signals on the concentrations of antigen in solution was analyzed with a 4-parameter fit analysis using Prism™ software (Graph Pad) and reported as IC50.
(§2) The respective binding affinities of the humanized antibodies to human pro-sPLA2-GIB and human sPLA2-GIB were measured by plate-based competition immunoassay. Briefly, constant amounts of antibody at different levels were premixed with serial dilutions of antigen proteins to reach pseudo-binding equilibrium between the antibody and antigen. These solutions were then transferred to antigen pre-coated plates to allow the free-antibody in the mixtures to bind to plate-coated sPLA2-GIB or pro-sPLA2-GIB. Plate-bound antibodies were detected with an HRP-conjugated polyclonal antibody. Data were fitted with a 4PL logistic non-linear regression model and the relative IC50 values were estimated from the model (Table 4).

[3] = target: T2, recombinant human pro-sPLA2-GIB (human, UniProt P04054 16-148); experiment: as above
T2 construct: also called pro-sPLA2-IB; proPLA2-GIB
Protocol: as §1, §2

immune complex of #2B2 with sPLA2-GIB, sequence (P04054 23-148, one chain of several): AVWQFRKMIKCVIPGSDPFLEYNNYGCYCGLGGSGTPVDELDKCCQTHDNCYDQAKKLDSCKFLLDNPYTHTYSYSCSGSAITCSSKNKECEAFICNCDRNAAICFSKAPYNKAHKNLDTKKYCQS
T2 sequence (P04054 16-148): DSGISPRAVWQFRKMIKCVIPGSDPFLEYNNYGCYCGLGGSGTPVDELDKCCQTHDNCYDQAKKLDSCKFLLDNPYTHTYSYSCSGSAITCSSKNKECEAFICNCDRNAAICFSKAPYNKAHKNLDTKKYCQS
T1 sequence (P04054 23-148): as the sequence (P04054 23-148, one chain of several) above

B1: human FcγRIIA (H131) (receptor, UniProt P12318 34-317, looked up)
chain: QAAAPPKAVLKLEPPWINVLQEDSVTLTCQGARSPESDSIQWFHNGNLIPTHTQPSYRFKANNNDSGEYTCQTGQTSLSDPVHLTVLSEWLVLQTPHLEFQEGETIMLRCHSWKDKPLVKVTFFQNGKSQKFSHLDPTFSIPQANHSHSGDYHCTGNIGYTLFSSKPVTITVQVPSMGSSSPMGIIVAVVIATAVAAIVAAVVALIYCRKKRISANSTDPVKAAQFEPPGRQMIAIRKRQLEETNNDYETADGGYMTLNPRAPTDDDKNIYLTLPPNDHVNSNN
notes: whole, on cells; Allelic variant with His at 131 (mature numbering as printed)
B1: no binding [1].

B2: human FcγRIIA(R131) (receptor, UniProt P12318 34-317, looked up)
chain: QAAAPPKAVLKLEPPWINVLQEDSVTLTCQGARSPESDSIQWFHNGNLIPTHTQPSYRFKANNNDSGEYTCQTGQTSLSDPVHLTVLSEWLVLQTPHLEFQEGETIMLRCHSWKDKPLVKVTFFQNGKSQKFSRLDPTFSIPQANHSHSGDYHCTGNIGYTLFSSKPVTITVQVPSMGSSSPMGIIVAVVIATAVAAIVAAVVALIYCRKKRISANSTDPVKAAQFEPPGRQMIAIRKRQLEETNNDYETADGGYMTLNPRAPTDDDKNIYLTLPPNDHVNSNN
notes: whole, on cells; Allelic variant with Arg at 131 (so in the source)
B2: no binding [1].

B3: human FcγRIIIB(NA1) (receptor, UniProt O75015 17-200, looked up)
chain: GMRTEDLPKAVVFLEPQWYRVLEKDSVTLKCQGAYSPEDNSTQWFHNENLISSQASSYFIDAATVDDSGEYRCQTNLSTLSDPVQLEVHVGWLLLQAPRWVFKEEDPIHLRCHSWKNTALHKVTYLQNGKDRKYFHHNSDFHIPKATLKDSGSYFCRGLVGSKNVSSETVNITITQGLAVSTIS
notes: whole, on cells
B3: no binding [1].

B4: human FcγRIIIB(SH) (receptor, UniProt O75015 17-200, looked up)
chain: GMRTEDLPKAVVFLEPQWYSVLEKDSVTLKCQGAYSPEDNSTQWFHNESLISSQASSYFIDDATVNDSGEYRCQTNLSTLSDPVQLEVHIGWLLLQAPRWVFKEEDPIHLRCHSWKNTALHKVTYLQNGKDRKYFHHNSDFHIPKATLKDSGSYFCRGLVGSKNVSSETVNITITQGLAVSTIS
notes: whole, on cells
B4: no binding [1].

B5: human FcγRIIIB(NA2) (receptor, UniProt O75015 17-200, looked up)
chain: GMRTEDLPKAVVFLEPQWYSVLEKDSVTLKCQGAYSPEDNSTQWFHNESLISSQASSYFIDAATVNDSGEYRCQTNLSTLSDPVQLEVHIGWLLLQAPRWVFKEEDPIHLRCHSWKNTALHKVTYLQNGKDRKYFHHNSDFHIPKATLKDSGSYFCRGLVGSKNVSSETVNITITQGLAVSTIS
notes: whole, on cells
B5: no binding [1].

B6: humanized antibody #2A (antibody, V domains shown)
VH: QVQLVQSGAEVKKPGASVKVSCKASGYTFTNYWIHWVRRAPGQGLEWIGNIDPSDTRTHYNQKFKDRATLTVDKSTSTAYMELSSLRSEDTAVYYCARQTLYYEALDYWGQGTLVTVSS
VL: EIVMTQSPATLSVSPGERATLSCKASQDVSTAVAWYQEKPGQAPRLLIYWASTRHTGIPARFSGSRSGTEYTLTISSLQSEDFAVYYCQQDYSTPPTFGGGTKVEIK
notes: CDR-grafted 14G9; version A keeps Arg H39 and Glu L38; also called Ab #2A
With B6 the IC50 [2] was 1.9 nM and the IC50 [3] was 216 nM.

From patent US20210047432A1 (DIACCURATE, published 2021)
